Test results from patent US20150044246A1 (IMMATICS BIOTECHNOLOGIES, published 2015).

B1: SVASTITGV from adipophilin (peptide)
peptide: SVASTITGV
notes: MHC class I ligand eluted from renal cell carcinoma tissue; also called adipophilin peptide; ADFP peptide
B2: ALLNIKVKL derived from keratin 18 (peptide)
peptide: ALLNIKVKL
notes: MHC class I ligand eluted from renal cell carcinoma tissue and identified by mass spectrometry; also called keratin 18 peptide; keratin 18-peptide
B3: YVDPVITSI derived from met proto-oncogene (peptide)
peptide: YVDPVITSI
notes: MHC class I ligand eluted from renal cell carcinoma tissue; also called met-proto-oncogene peptide

target: T1, HLA-A*0201 (recombinant, refolded with peptide for tetramer production) (human); test: reconstitution of HLA-A*0201 tetramers with peptide
T1 construct: Monomers were biotinylated; also called HLA-A2

Binding result, binds:
B1
B2
B3
